Assay type in all cases: cell-based, human
The subject of experiment [1] is BCA 225. Put plainly: BCA 225 shedding into culture medium, double-determinant ELISA. The following applies: T47D cells, 72 hr, 500 units/ml IFN-β or 50 units/ml IFN-γ, presence or absence of 1.0 μg/ml H-7. The procedure: (§1) After appropriate incubation times with the various compounds cell lysates were prepared from T47D cells. Cells were washed 3× in PBS, pH 7.6, pelleted and incubated for 1 hr at room temperature in 20 mM Tris HCl, pH 7.4, with PMSF. Cultures were then homogenized with a Teflon homogenizer, centrifuged at 3000 RPM for 10 min at 4° C. and the supernatant was mixed 1:2 with 20 mM Tris-HCl, pH 7.4, containing 0.5% NP40 (Sigma). After 1 hr at 4° C., the mixture was spun at 3000 RPM for 10 min and the supernatant was passed through an EXTRACTIGEL column (Pierce, Ill.) to remove excess detergent. Protein concentration was determined by the BCA micro-method (Pierce, Ill.). BCA 225 levels in cell extracts and supernatants from control and treated T47D cells were quantitated using a double-determinant ELISA assay. Briefly, Cu18 monoclonal antibody coated Nunc Immunoplates (Nunc, Denmark) were blocked with 1% BSA (Sigma, RIA Reagent Grade) and incubated with a 1:2 dilution of supernatant in duplicate. Standard values for a partially purified BCA 225 preparation were used at a range of 0 to 10 μg/ml in RPMI 1640 plus 10% FBS (T47D growth medium). After 2 hr incubation and three washings with PBS 0.1% Tween 20 a Cu46 monoclonal antibody conjugated to peroxidase was applied to the plate, incubated for 2 hr, washed 6× in PBS 0.1% Tween 20 and the reaction was developed with […] OPD (Sigma, St. Louis) and 4 μl of 30% H2O2 in McIlvans buffer, pH […]. The plates were read on a Dynatech Elisa reader and a linear standard curve was generated and used to calculate the relative amount of BCA 225 in cell lysates and shed into the culture medium. Results were adjusted to ng BCA 225 per mg of protein, or per 1×10^6 cells. Replicate samples varied by ≦10% and replicate experiments varied by ≦20%.
For orientation: An ELISA detects its analyte on a solid surface through an enzyme-linked reagent.

Experiment [2] concerns BCA 225. In words: BCA 225 synthesis, double-determinant ELISA of T47D cell lysates. The following applies: T47D cells, 72 hr, 500 units/ml IFN-β or 50 units/ml IFN-γ, presence or absence of 1.0 μg/ml H-7. How it is done:
as §1

The test system of experiment [3] is BCA 225. Put plainly: FACS analysis of BCA 225 surface expression in T47D cells. Conditions: 72 hr, 500 units/ml IFN-β or 50 units/ml IFN-γ, presence or absence of 1.0 μg/ml H-7. From the text: (§2) IgG1 murine monoclonal antibody Cu18 and Cu46 recognize two different epitopes of a highly restricted breast carcinoma associated glycoprotein of Mr 225,000 to 250,000 (BCA 225). This TAA is expressed intracytoplasmically and on the membrane of 94% of breast tumors tested and in the T47D human breast carcinoma cell line. BCA 225 is shed into the culture medium by T47D cells and into the sera of breast cancer patients. IgG2a monoclonal antibody L243 (anti HLA Class II-DR) recognizes a monomorphic HLA Class II-DR-α epitope (ATCC M355). Monoclonal antibody CL203.4 [40], which recognizes ICAM-I, was kindly provided by Dr. S. Ferrone, New York Medical College, NY. The c-erbB-2 monoclonal antibody which recognizes the extracellular domain of c-erbB-2 was obtained from Triton Biosciences, Inc., Alamedia, Calif. Monoclonal antibodies Cu18 and Cu46 were used at 0.05 μg/ml and monoclonal antibodies interacting with HLA Class II-DR, ICAM-1 and c-erbB-2 were used at 10 μg/ml. For each experiment, isotype matched control backgrounds (IgG for Cu18, Cu46 and ICAM-1, IgG2a for HLA Class Ii and IgG2b for c-erbB-2) were subtracted from the experimental results. Background from antimouse IgG FITC antibody was also subtracted from experimental results. Applicants never observed backgrounds higher than 2% of total cells for isotypic mouse IgG or higher than 5% for antimouse IgG FITC.
(§3) T47D cells treated with the various compounds were analyzed by flow cytometry using appropriate monoclonal antibody concentrations as described previously. Briefly, 1×10^5 cells were incubated with the test antibody for 30 min at 4° C., washed 3× with PBS and incubated with a goat a mouse F (ab)2 FITC conjugated test antibody at a 1:40 dilution for 30 min at 4° C. Cells were then washed 3× with PBS and analyzed on a FACStar (Beckon Dickinson, Mountain View, Calif.) or a Coulter Epics IV FACS (Coulter, Hialeah, Fla.). Results are expressed as mean fluorescence intensity (MFI) units which were determined as described previously. MFI=(mean channel fluorescence in fluorescence positive antibody-binding cells×% of fluorescence positive antibody-binding cells)−(mean channel fluorescence in unstained cells×% of fluorescence positive cells in the unstained population). All studies were performed a minimum of three or four times with duplicate samples in each experiment. Replicate samples within individual experiments varied by ≦10% and variation between experiments were generally ≦20%.
On the technique in general: A flow cytometer gives signals particle by particle.

In experiment [4] the test system is HLA Class II antigens. Put plainly: FACS analysis of HLA Class II antigen surface expression in T47D cells.
Text: as §2, with “μg/ml.” for “μg/ml. For each experiment, isotype matched control backgrounds (IgG for Cu18, Cu46 and ICAM-1, IgG2a for HLA Class Ii and IgG2b for c-erbB-2) were subtracted from the experimental results. Background from antimouse IgG FITC antibody was also subtracted from experimental results. Applicants never observed backgrounds higher than 2% of total cells for isotypic mouse IgG or higher than 5% for antimouse IgG FITC.”
as §3, with “experiment.” for “experiment. Replicate samples within individual experiments varied by ≦10% and variation between experiments were generally ≦20%.”

B1: IFN-γ: recombinant human immune interferon produced in Escherichia coli (protein, UniProt P01579 24-161, looked up)
Interferon gamma: QDPYVKEAENLKKYFNAGHSDVADNGTLFLGILKNWKEESDRKIMQSQIVSFYFKLFKNFKDDQSIQKSVETIKEDMNVKFFNSNKKKRDDFEKLTNYSVTDLNVQRKAIHELIQVMAELSPAAKTGKRKRSQMLFRG
B1: in experiment [1], the “BCA 225 Shedding” value turned out to be 64 ng/ml/10^6 cells and the “BCA 225 Shedding, relative change in comparison with controls (equivalent to 1.0)” value came out at 1.4. In experiment [2], the “BCA 225 Synthesis” value is recorded as 722 ng/mg protein and the “BCA 225 Synthesis, relative change in comparison with controls (equivalent to 1.0)” value is given as 3.2. In experiment [3], the “BCA 225 Expression” value is given as 9,069 MFI and the “BCA 225 Expression, relative change in comparison with controls (equivalent to 1.0)” value is listed as 3.2. Besides, the “fold increase in HLA Class II expression” value in experiment [4] (500 units/ml IFN-α, IFN-β or IFN-γ as in Table 3) is listed as 69 fold. Moreover, the “HLA Class II relative increase in expression versus untreated controls (equivalent to 1.0)” value in experiment [4] (72 hr, 500 units/ml IFN-β or 50 units/ml IFN-γ, presence or absence of 1.0 μg/ml H-7) amounted to 69.2. Besides, in experiment [4] (72 hr, 500 units/ml IFN-β or 50 units/ml IFN-γ, presence or absence of 1.0 μg/ml H-7, Coulter Epics IV FACS), the “Antigenic Expression (MFI) HLA Class II” value is listed as 202,102 MFI.

Values taken from patent publication US20020040062A1, “Protein kinase C activators and their use in decreasing expression of cell antigens” (The Trustees of Columbia University, priority 1993, published 2002).
